Reference: patent US20150064731A1 (PROMEGA, published 2015)

Target: the molecule itself
Assay: gel filtration chromatography (Superdex 200 5/150 GL) of the purified protein; self-association
From the text: Gel filtration analysis was used to verify the expected molecular weight of the purified OgLuc proteins based on the theoretical values and consequently to determine their oligomeric state. A comparison between the relative hydrodynamic volume of the OgLuc variants C1+A4E and 9B8 was made by gel filtration chromatography. For this analysis, the nucleotide sequence for the OgLuc variants, C1+A4E and 9B8, were cloned into a HQ-Tagged Flexi® Vector (Promega Corp.) to create a HQHQHQ (SEQ ID NO: 580) N-terminally tagged protein that was overexpressed in E. coli KRX cells. The overexpressed proteins were purified using the HisLink™ Protein Purification System (Promega Corp.) according to manufacturer's instructions. Samples of each individual standard and sample protein were analyzed by gel filtration chromatography, which was performed at 24° C. on an Agilent 1200 HPLC, using a Superdex 200 5/150 GL column (GE Healthcare) with a flow rate of 0.25 mL/min (FIGS. 43A-B). The mobile phase (i.e., running buffer) consisted of 50 mM Tris and 150 mM NaCl, pH 7.5. Protein elution was monitored at 214 and 280 nm. A standard calibration curve was generated using: 1) Ovalbumin, 43 kDa (GE Healthcare), 2) Carbonic Anhydrase, 29 kDa (Sigma) and 3) Myoglobin, 17 kDa (Horse Heart, Sigma). The molecular weights of the purified proteins were calculated directly from the calibration curve.

B1: OgLuc variant 9B8, HQHQHQ N-terminally tagged (enzyme)
chain: HQHQHQFTLEDFVGDWRQTAGYNLDQVLEQGGLSSLFQKLGVSVTPIQKIVLSGENGLKIDIHVIIPYEGLSGYQMGQIEKIFKVVYPVDDHHFKVILHYGTLVIDGVTPNMIDYFGRPYEGIAVFDGKKITVTGTLWNGNKIIDERLINPDGSLLFRVTINGVTGWRLCERILA
notes: Overexpressed in E. coli KRX and purified with the HisLink Protein Purification System for gel filtration
B1: no binding.
